{"source": "paper PMC5670123", "about": "“The structural basis of proton driven zinc transport by ZntB” (Nature Communications, 2017)", "proteins": {"B1": {"name": "ZntB from Escherichia coli, full-length (natural protein, UniProt P64423 1-327, looked up)", "chain": "MEAIKGSDVNVPDAVFAWMLDGRGGVKPLENTDVIDEAHPCWLHLNYVHHDSAQWLATTPLLPNNVRDALAGESTRPRVSRLGEGTLITLRCINGSTDERPDQLVAMRVYMDGRLIVSTRQRKVLALDDVVSDLEEGTGPTDCGGWLVDVCDALTDHSSEFIEQLHDKIIDLEDNLLDQQIPPRGFLALLRKQLIVMRRYMAPQRDVYARLASERLPWMSDDQRRRMQDIADRLGRGLDEIDACIARTGVMADEIAQVMQENLARRTYTMSLMAMVFLPSTFLTGLFGVNLGGIPGGGWQFGFSIFCILLVVLIGGVALWLHRSKWL", "notes": "Zinc transporter ZntB of Escherichia coli (CorA metal ion transporter family), full-length; Homopentamer in DDM micelles, apo (pre-treated with EDTA); TEV protease (ProTev Plus) is described only for the proteoliposome transport assay, not for the cryo-EM sample; also called EcZntB; source: membrane vesicles solubilized in DDM, purified (Ni2+-sepharose, EDTA treatment, Superdex 200 SEC)"}}, "biological_target": "the molecule itself", "experiment": "cryo-EM structure; single-particle cryo-EM of DDM-solubilized, purified EcZntB pre-treated with EDTA (apo), ~10 mg/ml, 50 mM Tris/HCl pH 8.0, 250 mM NaCl, 0.03% DDM; overall resolution 4.2 Å"}
{"protein": "B1", "values": [{"measurement": "stoichiometry N", "result": 5}]}
